Reference: paper PMC4332690

Key:
[1] = molecular target: PIDD death domain (PIDD-DD), human, residues 778-883 (human) (UniProt Q9HB75); assay: native MS; nanoESI-MS, positive ion mode; 15 μM purified complex in 50 mM ammonium acetate pH 7.8
[2] = molecular target: PIDD death domain (PIDD-DD), human, residues 778-883 (human) (UniProt Q9HB75); assay: SEC-MALS; as a1 but total protein loaded 1.5 mg/mL (lowest concentration; some subunit dissociation)

Chain of UniProt Q9HB75 (Q9HB75 778-883): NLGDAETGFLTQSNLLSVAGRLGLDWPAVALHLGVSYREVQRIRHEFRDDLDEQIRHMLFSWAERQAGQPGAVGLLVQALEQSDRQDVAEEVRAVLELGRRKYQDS

RAIDD death domain (RAIDD-DD), human, residues 99-199, wild type (from UniProt P78560 99-199) (domain or fragment)
population of the 5:5 complex [1]: 28% | population of the 6:5 complex [1]: 43% | population of the 7:5 complex [1]: 29% | stoichiometry N (RAIDD-DD per PIDD-DD (5:5)) [1]: 1 | stoichiometry N (RAIDD-DD per PIDD-DD (6:5)) [1]: 1.2 | stoichiometry N (RAIDD-DD per PIDD-DD (7:5)) [1]: 1.4

RAIDD-DD (E188K) (from UniProt P78560 99-199) (domain or fragment)
stoichiometry N (RAIDD-DD per PIDD-DD (R4:P4)) [2]: 1 | population of the 5:4 complex [1]: 13% | population of the 5:5 complex [1]: 87% | stoichiometry N (RAIDD-DD per PIDD-DD (5:4)) [1]: 1.25 | stoichiometry N (RAIDD-DD per PIDD-DD (5:5)) [1]: 1
